Source: US20210002358A1

Molecular target: tau seeds in spinal cord homogenates of P301S transgenic mice (aggregated transgenic human tau) (human), P10636
Test: cell-based or functional assay

Sequence of tau seeds in spinal cord homogenates of P301S transgenic mice (aggregated transgenic human tau) (human), P10636 (P10636 other isoform, or with tags, fused parts or gaps P301S P301S): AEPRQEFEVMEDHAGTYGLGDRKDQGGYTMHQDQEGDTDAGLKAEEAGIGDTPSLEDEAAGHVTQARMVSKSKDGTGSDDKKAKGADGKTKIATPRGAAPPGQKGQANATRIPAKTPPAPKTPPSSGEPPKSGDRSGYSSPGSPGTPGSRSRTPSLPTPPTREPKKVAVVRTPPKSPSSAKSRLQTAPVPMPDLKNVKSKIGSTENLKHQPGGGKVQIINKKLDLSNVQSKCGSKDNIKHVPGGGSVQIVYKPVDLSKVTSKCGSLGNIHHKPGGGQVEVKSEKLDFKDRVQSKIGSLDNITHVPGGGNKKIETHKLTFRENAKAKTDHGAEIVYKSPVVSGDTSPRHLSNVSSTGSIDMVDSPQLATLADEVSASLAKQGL

K18 aggregate formation, FRET-positive HEK cells counted by FACS: 3 nM
B1: PT82 mAb (recombinantly expressed, mouse IgG2a/kappa) (antibody, V domains shown)
VH: EVKLEESGGGLVQPGGSMKLSCVASGFTFSNYWMNWIRQSPEKGLEWVAQIRLQSDNYATRYAESVKGRFTISRDESKTSVYLQMNNLRTEDTGIYYCTGGTTYWGQGTLVTVSA
VL: DIVMTQSQKFMSTSVGDRVSITCKASQNVGTAVAWYQQKPGQSPKLLIYSASIRYTGVPDRFTGSGSGTDFTLTINYMQSEDLADYFCQQFSSYPYTFGGGTKLEIK
